# Experimental data: patent US20120207760A1 (THERACLONE SCIENCES, published 2012)
# B1: TCN-563 (5237_B21) (antibody, V domains shown)
# VH: QVQLAQSGAEVKRPGSSVKVSCTASGGIFRKNAISWVRQAPGQGLEWMGGIIAVFNTANYAQKFQGRVKITADESGNTAYMELSSLRSDDTAVYYCASHPKYFYGSGSYPDFWGQGTLVTVSS
# VL: QSALTQPRSVSGSPGQSVTISCTGSSSDVGASNSVSWYQQHPGKAPKLVIYDVTERPSGVPHRFSGSKSGNTASLTVSGLQPEDEADYFCCAYGGKYLVVFGGGTKVTVL
# B2: TCN-522 (3212_I12) (antibody, V domains shown)
# VH: QVQLQQWGAGLLKPSETLSLTCTVSGGSLTDYSWNWIRQPPGKGLEWIGDTLHNGYTNYNPSLRGRVSISIDTSKNQVSLRLTSVTAADTALYYCARGSGGYGGFDYFGKLRTWDFWGQGTLVTVSS
# VL: DIQLTQSPSSLSASVGDRVTITCRASQGIRNDLGWYQQKPGNAPKRLIFGASSLQSGVPSRFSGSGSGTEFTLTISSLQPEDFATYYCLQHNSYPYTFGQGTKLEIK
# B3: TCN-528 (5087_P17) (antibody, V domains shown)
# VH: QVQLVQSGSEVKKPGASVKVSCKASGYTFTNYDINWIRQAPGQGLEWMGWINPNSGTTGSAQRFQGRVTITVDTSITTVYMELSSLRSDDTAIYYCARGRELLRLQHFLTDSQSERRDCFDPWGQGTLVTVSS
# VL: DIQMTQSPSSLSASVGDRVTITCRANQDIGIYLNWYQQNPGKVPKLLLHGASSLQGGVPSRFSASGSGTDFTLTIHSLQPEDLATYYCQQSRRLPYTFGQGTRVELK
# B4: TCN-526 (5084_C17) (antibody, V domains shown)
# VH: EVLMVESGGGLVQPGGSVRLSCVASGFSFSSHWMTWVRQAPGKGLEWVANIEDDGGDKYYVDSVKGRFIISRDNAKNSVYLQMNSLRAEDTAVYFCARGSGSSDRSDYDPHYYYYLDVWGKGATVTVSS
# VL: DIQLTQSPSSLSASVGDRVTITCRASQSISRYLNWYQQKPGKAPKLLLFAASTLLDGVPSRFSGSGSGTDFTLTISSLQPEDFATYYCQRNHSPSWTFGQGTRVEIK
# B5: TCN-529 (5297_H01) (antibody, V domains shown)
# VH: QITLRESGPTLVKPTQTLTLTCTFSGFSLSTNGVNVGWIRQPPGKALEWLALIYWDDDKRYSPSLKRRLTITKDTSKNQVVLTLTNMDPVDTATYYCAHRPDFYGDFEYWGPGTLVTVSS
# VL: QSALTQPASVSGSPGQSITISCTGSSSDIGGYNYVSWYQQHPGKAPKLMIYDVNNRPSGVSNRFSGSKSGNTASLTISGLQTDDEADYYCGSYTGSPHYVFGTGTKVTVL
# B6: TCN-527 (5086_C06) (antibody, V domains shown)
# VH: QVQLQESGPGLVKPSETLSLNCAVSGGSISNYYWSWIRQPPGKGLEWIGYISYNGRPKYNPSLTSRVTISVDTSKDQFSLELRSVTAADTALYYCARETRFGELLSPYDAFEIWGQGTMVTVSS
# VL: DIQMTQSPSSLSASVGDRVTMTCRASQNIRSYLNWYQQRPGTAPKLLIYAASTLHSGVPSRFSGGGSGTDFTLTINNLQPEDFASYYCQQSYDNPQTFGQGTKVEIK
# B7: TCN-530 (5248_H10a) (antibody, V domains shown)
# VH: QVQLVQSGAEVRKPGSSVKVSCKASGGPFMSYAIGWVRQAPGQGLEWMGGINPVFGRPHYAQKFQGRVTIATDDSTKTSYMELSSLTSEDTGMYYCASRYSRSSPGTFESWGQGTLVTVSS
# VL: EIVMTQFPATLSVSPGERVTLSCRASQSVSNNLAWYQQKPGQPPRLLIYDASTRATGVPAKFSGTGSGTEFTLSISSLQSEDFAVYYCQQYHNWPPSYSFGLGTKLEIK
# What was measured:
# [1] = target: T1, hemagglutinin (HA) of influenza A/Solomon Islands/3/06 H1N1 (Influenza A virus A/Solomon …); assay: ELISA, inactivated whole virions coated; transfection supernatant set 2
# [2] = target: T2, hemagglutinin (HA) of influenza A/Japan/305/57 H2N2 (Influenza A virus A/Japan/305/1957 …, UniProt P03451 16-562); assay: as above
# [3] = target: T1, hemagglutinin (HA) of influenza …; assay: cell-based or functional assay
# [4] = target: T1, hemagglutinin (HA) of influenza …; assay: ELISA, inactivated whole virions coated; transfection supernatant set 3
# [5] = target: T2, hemagglutinin (HA) of influenza …; assay: as above
Binder,OD450 [1] [OD450],OD450 [2] [OD450],% Neutralization [3] [%],OD450 [4] [OD450],OD450 [5] [OD450]
B1,3.6,0.84,78,,
B2,3.48,0.61,33,,
B3,3.66,3.64,0,,
B4,0.08,0.07,0,,
B5,,,0,0.16,0.1
B6,3.69,3.63,12,,
B7,,,64,3.62,3.43
